These results are taken from patent US20260139057A1 (University of California, published 2026).

As a reminder, the Kd is the free concentration of one partner at which half of the binding sites on the other are occupied at equilibrium, for simple one-to-one binding.

Experiment [1] concerns the target integrin αvβ6 ectodomain (immobilized) (human, UniProt P06756 31-992; P18564 22-709).
Experiment [2] concerns the target T1, recombinant human integrin αvβ8 ectodomain (human, UniProt P06756 31-992; P26012 43-681). The experiment in a line: cell-based or functional assay.
Experiment [3] deals with T2, human integrin αvβ8 on transfected cells (CHO cells stably transfected; HEK 293 cells stably expressing αvβ8) (human, UniProt P06756 31-1048; P26012 43-769).
T2 construct: whole, on cells; also called CHO αvβ8 cells; αvβ8 expressing CHO cells
The experiment in a line: flow cytometry on unfixed CHO cells expressing human αvβ8, antibody titrated, hyperbolic least-squares fit (m3 = KD); curves on D00025 [Cont.]. As to the method:
(§1) FIG. 17: Characterization of cell surface binding of humanized affinity optimized anti-αvβ8 antibodies. The cell surface binding affinities of H4C8, H4G9, H4C10, H4G8 compared to HuC6D4F12 expressed as IgG4 (S228P to prevent arm exchange, R409K and L445P to reduce aggregation and to promote stability). […] Cell surface affinity was determined using the least-squares fit model based on the hyperbolic equation y=m1+m2*m0/(m3+m0), where y=MFI at different avb8 concentrations; m0=αvβ8 concentration; m1=MFI with no αvβ8; m2=MFI at saturation; and m3=KD.
(§2) FIG. 18: Binding characteristics of H4C8 of formalin fixed αvβ8 compared to HuC6D4F12 or ADWA11 2.4 (from Pat no. US2020/0079855 A1). CHO αvβ8 expressing cells were fixed in 2% buffered formalin in PBS for 15 min at RT and then stained at the indicated concentrations as described in FIG. 17. The binding affinities to unfixed or formalin fixed cells is shown. Cell surface affinity was determined using the least-squares fit model based on the hyperbolic equation y=m1+m2*m0/(m3+m0), where y=MFI at different αvβ8 concentrations; m0=αvβ8 concentration; m1=MFI with no αvβ8; m2=MFI at saturation; and m3=KD.

For experiment [4], the target named is T2, human integrin αvβ8 on transfected …. The experiment in a line: flow cytometry on CHO cells expressing human αvβ8 fixed in 2% buffered formalin for 15 min, antibody titrated, hyperbolic least-squares fit (m3 = KD); curves on D00025 [Cont.]. As to the method:
as §1, §2
In general terms: Flow cytometry measures light scatter and fluorescence of single cells or particles in a stream.

Experiment [5] deals with T1, recombinant human integrin αvβ8 …. In words: cell-based or functional assay. The source holds these as a separate data set.
Experiment [6] has the same target. In words: cell-based or functional assay. The source holds these as a separate data set.
The target is the same in experiment [7]. In words: cell-based or functional assay. This is another data set of the same source.
The target is the same in experiment [8]. In words: cell-based or functional assay. This is another data set of the same source.
For experiment [9] the target is unchanged. In words: MFI against concentration, fit y = m1 + m2*M0/(m3+M0), m3 = KD; paragraph 50 and paragraph 227 give these KD values for the yeast scFv with soluble αvβ8, the legend of FIG. 17 speaks of IgG4 on CHO αvβ8 cells.
For experiment [10] the target is unchanged. The experiment in a line: yeast-displayed scFv titrated with αvβ8 ectodomain, flow cytometry, hyperbolic fit. As to the method: After induction and screening of the pooled transformants for scFV expression using anti-V5 (clone SV5), the avb8 ectodomain was incubated with the yeast pool, washed and scFV which bound to αvβ8 were detected using anti-human αv (clone 8β8). After multiple rounds of selection by sorting yeast stained under conditions of increasing stringency (Low Ag concentration, short Kon and long Koff), individual clones were isolated, sequenced and tested for binding affinity. Shown are the sequences of VH and VL pairs enriched in the library. The binding affinities of representative yeast clones was determined using a least-squares fit model based on the hyperbolic equation y=m1+m2*m0/(m3+m0), where y=MFI at different αvβ8 concentrations; m0=αvβ8 concentration; m1=MFI with no αvβ8; m2=MFI at saturation; and m3=KD. […]
We then created a scFV yeast display library (Library 3) with degenerate positions coding for novel amino acids (i.e. not in germline human or mouse Ig sequence databases), back mutations to mouse from clone H1.1, as well as final humanization of Fr4 VH and VL based on the human germline (SEQ ID NO: 29, 30 and 32). […] After induction and screening of the pooled transformants for scFV expression using anti-V5 (clone SV5), the αvβ8 ectodomain was incubated with the yeast pool, washed and scFV which bound to αvβ8 were detected using anti-human αv (clone 8β8). […]

Experiment [11] has the same target. In words: KinExA; antibody format and antigen form not stated. In general terms: A kinetic exclusion assay measures how much of one partner remains free in solution.

T1 sequence (P06756 31-992 limits assumed, chain 1 of 2): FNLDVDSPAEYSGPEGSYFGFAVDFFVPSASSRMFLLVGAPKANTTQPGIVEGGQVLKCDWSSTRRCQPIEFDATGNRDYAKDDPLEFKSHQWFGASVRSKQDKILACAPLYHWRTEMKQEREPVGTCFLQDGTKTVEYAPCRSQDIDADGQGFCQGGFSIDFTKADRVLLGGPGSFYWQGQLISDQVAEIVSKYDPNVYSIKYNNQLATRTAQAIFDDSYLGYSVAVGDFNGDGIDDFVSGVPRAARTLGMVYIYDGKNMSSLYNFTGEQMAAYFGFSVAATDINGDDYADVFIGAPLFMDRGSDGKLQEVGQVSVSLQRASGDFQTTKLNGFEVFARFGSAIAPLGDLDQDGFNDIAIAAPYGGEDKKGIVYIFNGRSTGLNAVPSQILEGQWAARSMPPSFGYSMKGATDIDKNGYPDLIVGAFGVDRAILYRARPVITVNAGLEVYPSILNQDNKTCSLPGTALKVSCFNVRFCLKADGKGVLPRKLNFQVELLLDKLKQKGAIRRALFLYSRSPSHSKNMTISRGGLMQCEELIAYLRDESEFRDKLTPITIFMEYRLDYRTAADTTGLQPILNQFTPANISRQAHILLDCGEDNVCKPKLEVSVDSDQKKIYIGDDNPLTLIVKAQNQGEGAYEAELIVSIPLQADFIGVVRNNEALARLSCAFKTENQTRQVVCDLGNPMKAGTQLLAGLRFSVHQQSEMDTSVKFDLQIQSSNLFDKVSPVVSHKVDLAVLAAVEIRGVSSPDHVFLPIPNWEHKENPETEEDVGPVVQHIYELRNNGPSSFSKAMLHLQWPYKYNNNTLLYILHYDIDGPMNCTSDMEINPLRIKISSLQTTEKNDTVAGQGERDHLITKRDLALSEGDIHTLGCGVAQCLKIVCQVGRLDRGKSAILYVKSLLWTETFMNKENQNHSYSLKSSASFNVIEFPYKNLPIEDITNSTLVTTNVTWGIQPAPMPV
T1 sequence (P26012 43-681 limits assumed, chain 2 of 2): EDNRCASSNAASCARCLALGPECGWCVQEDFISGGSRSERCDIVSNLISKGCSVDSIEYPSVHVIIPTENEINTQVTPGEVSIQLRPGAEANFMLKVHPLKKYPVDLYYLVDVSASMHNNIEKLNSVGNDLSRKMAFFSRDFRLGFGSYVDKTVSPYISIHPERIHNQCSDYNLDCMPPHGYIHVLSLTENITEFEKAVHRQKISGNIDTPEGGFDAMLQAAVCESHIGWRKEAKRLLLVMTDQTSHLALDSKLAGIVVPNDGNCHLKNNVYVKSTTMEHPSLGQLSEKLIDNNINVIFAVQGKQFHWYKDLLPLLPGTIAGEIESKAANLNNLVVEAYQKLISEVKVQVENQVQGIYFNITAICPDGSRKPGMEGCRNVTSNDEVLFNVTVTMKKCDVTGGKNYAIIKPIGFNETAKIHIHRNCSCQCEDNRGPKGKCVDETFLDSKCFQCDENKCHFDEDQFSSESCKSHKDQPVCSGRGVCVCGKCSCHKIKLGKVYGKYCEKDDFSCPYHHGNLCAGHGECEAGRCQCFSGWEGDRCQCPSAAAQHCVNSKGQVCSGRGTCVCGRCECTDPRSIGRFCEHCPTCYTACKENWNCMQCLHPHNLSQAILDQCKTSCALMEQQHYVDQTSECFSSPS
T2 sequence (P06756 31-1048, chain 1 of 2): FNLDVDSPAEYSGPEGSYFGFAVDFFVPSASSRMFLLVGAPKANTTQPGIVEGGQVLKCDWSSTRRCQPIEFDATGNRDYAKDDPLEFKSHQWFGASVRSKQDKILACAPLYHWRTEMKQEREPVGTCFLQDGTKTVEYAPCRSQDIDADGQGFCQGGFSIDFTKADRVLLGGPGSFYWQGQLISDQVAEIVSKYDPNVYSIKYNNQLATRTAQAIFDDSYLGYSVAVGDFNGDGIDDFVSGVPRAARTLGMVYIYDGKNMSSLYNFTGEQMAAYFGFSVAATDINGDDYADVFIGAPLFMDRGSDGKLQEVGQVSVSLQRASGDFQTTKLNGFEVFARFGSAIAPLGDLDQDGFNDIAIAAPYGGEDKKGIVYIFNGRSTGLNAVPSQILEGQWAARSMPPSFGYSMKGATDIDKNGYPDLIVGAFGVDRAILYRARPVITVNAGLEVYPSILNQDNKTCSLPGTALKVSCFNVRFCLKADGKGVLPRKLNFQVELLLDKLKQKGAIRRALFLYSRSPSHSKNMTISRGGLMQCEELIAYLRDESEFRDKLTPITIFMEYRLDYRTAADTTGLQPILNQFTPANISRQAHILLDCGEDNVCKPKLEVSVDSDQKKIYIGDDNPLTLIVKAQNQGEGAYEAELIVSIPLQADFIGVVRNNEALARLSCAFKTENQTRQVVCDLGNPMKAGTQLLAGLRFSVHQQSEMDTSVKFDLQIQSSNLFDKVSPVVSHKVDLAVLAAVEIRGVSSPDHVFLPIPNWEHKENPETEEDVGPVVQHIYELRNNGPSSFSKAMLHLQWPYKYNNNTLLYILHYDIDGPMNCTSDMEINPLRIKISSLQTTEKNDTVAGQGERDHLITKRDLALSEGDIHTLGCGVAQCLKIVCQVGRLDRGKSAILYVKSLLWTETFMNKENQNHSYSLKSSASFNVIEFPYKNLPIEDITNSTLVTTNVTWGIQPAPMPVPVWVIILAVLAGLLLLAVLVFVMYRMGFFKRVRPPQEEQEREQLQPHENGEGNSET
T2 sequence (P26012 43-769, chain 2 of 2): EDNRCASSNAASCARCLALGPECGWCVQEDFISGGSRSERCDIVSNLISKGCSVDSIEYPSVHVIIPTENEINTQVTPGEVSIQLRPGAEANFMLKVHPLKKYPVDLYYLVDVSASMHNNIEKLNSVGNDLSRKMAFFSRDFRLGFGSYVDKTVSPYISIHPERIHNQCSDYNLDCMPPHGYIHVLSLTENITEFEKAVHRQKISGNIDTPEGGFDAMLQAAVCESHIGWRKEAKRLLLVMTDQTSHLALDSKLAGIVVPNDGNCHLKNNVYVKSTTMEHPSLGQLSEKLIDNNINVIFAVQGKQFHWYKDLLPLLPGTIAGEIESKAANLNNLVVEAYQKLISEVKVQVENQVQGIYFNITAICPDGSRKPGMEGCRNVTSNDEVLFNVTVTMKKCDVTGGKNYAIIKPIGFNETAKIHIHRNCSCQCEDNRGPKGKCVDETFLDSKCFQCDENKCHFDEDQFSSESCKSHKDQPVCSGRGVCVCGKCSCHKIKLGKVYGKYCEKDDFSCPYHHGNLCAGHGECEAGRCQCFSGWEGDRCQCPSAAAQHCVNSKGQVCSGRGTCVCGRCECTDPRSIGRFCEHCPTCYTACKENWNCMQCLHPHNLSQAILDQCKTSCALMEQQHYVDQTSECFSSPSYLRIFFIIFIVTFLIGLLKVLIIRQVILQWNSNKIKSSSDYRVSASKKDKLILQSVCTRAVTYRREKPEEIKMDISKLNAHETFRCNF
Sequence of integrin αvβ6 ectodomain (immobilized) (P06756 31-992, chain 1 of 2): as the sequence (P06756 31-992 limits assumed, chain 1 of 2) above
Sequence of integrin αvβ6 ectodomain (immobilized) (P18564 22-709, chain 2 of 2): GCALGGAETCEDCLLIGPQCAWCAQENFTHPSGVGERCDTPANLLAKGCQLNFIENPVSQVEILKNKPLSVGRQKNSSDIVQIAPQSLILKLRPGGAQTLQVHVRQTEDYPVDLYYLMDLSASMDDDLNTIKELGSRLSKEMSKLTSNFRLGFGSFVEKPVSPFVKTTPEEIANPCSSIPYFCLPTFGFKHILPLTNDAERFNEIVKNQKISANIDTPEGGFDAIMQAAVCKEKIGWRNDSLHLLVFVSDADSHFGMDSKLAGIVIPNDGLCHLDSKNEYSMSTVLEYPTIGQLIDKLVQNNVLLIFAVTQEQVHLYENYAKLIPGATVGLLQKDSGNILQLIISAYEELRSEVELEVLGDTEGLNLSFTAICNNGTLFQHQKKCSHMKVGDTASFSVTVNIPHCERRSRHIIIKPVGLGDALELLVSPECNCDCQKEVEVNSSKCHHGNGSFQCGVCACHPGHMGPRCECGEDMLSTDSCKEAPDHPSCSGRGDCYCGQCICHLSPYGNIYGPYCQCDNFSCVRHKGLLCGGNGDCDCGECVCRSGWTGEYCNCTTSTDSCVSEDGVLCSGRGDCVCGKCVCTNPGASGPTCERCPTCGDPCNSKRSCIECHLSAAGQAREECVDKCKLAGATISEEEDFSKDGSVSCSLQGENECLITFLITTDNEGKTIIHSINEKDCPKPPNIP

In the case of 3G9 (anti-β6), mouse IgG2a (antibody), in [1], the ED50 of the inhibition of αvβ6-mediated TGF-β activation (immobilized human αvβ6, TMLC GARP/L-TGF-β reporter cells) worked out at 0.22 µg/mL.

B1: ADWA11 2.4 antibody (from US2020/0079855 A1) (antibody, V domains shown)
VH: EVQLVESGGGLVQPGGSLRLSCAASGFNIKDYYMNWVRQAPGKGLEWVGWIDPDQGNTIYEPKFQGRFTISADTSKNSAYLQMNSLRAEDTAVYYCARRLLMDYWGQGTLVTVSS
VL: DIQMTQSPSSLSASVGDRVTITCRSTKSLSHFNGNTYLFWYQQKPGKAPKRLIYYMSSLASGVPSRFSGSGSGTDFTLTISSLQPEDFATYYCQQSLEYPFTFGGGTKVEIKR
Take B1: the “EC50 of the inhibition of αvβ8-mediated TGF-β activation (TMLC GARP/TGF-β luciferase reporter cells on αvβ8-coated wells)” value in experiment [2] came to 274 µg/mL. The Kd in [3] worked out at 20 nM; in experiment [4], 56 nM.

B2: HuF12 IgG2a (antibody)
heavy: QIQLVQSGAEVKKPGASVKISCKASGYTFTKYSMHWVRQAPGQGLEWVARINTETGEPTFADDFRGRFTVTLDTSTSTAYLEIRSLRSDDTAVYFCAIFYYGRDTWGQGTTLTVSSASTKGPSVFPLAPSSKSTSGGTAALGCLVKDYFPEPVTVSWNSGALTSGVHTFPAVLQSSGLYSLSSVVTVPSSSLGTQTYICNVNHKPSNTKVDKKIVPRDCGCKPCICTVPEVSSVFIFPPKPKDVLTITLTPKVTCVVVDISKDDPEVQFSWFVDDVEVHTAQTQPREEQFNSTFRSVSELPIMHQDWLNGKEFKCRVNSAAFPAPIEKTISKTKGRPKAPQVYTIPPPKEQMAKDKVSLTCMITDFFPEDITVEWQWNGQPAENYKNTQPIMDTDGSYFVYSKLNVQKSNWEAGNTFTCSVLHEGLHNHHTEKSLSHSPGK
VL: EIVMTQSPATLSVSPGERVTMSCKSSQSLLHSRSRKNYLAWYQQKPGQAPRLLIYWASTRESGVPARFSGSGSGTEFTLTISSVQSEDFAVYYCKQSYNLLSFGQGTVLEIKR
Regarding B2, the “EC50 of inhibition of αvβ8-mediated TGF-β activation” value in experiment [5] came out at 0.2 µM. Further, the “ED50 of the inhibition of αvβ8-mediated TGF-β activation (immobilized αvβ8, TMLC GARP/L-TGF-β reporter cells)” value in experiment [6] stood at 0.02 µg/mL. In addition, in [7], the “IC50 of the inhibition of TGF-β activation (TMLC GARP/TGF-β1 reporter cells on αvβ8-coated wells)” value was determined as 0.0922 µg/mL. Moreover, in experiment [8], the “IC50 (read off the curve)” value is around 0.3 µg/mL.

B3: HuF12 scFv displayed on yeast (scFv, V domains shown)
VH: QIQLVQSGAEVKKPGASVKISCKASGYTFTKYSMHWVRQAPGQGLEWVARINTETGEPTFADDFRGRFTVTLDTSTSTAYLEIRSLRSDDTAVYFCAIFYYGRDTWGQGTTLTVSS
VL: EIVMTQSPATLSVSPGERVTMSCKSSQSLLHSRSRKNYLAWYQQKPGQAPRLLIYWASTRESGVPARFSGSGSGTEFTLTISSVQSEDFAVYYCKQSYNLLSFGQGTVLEIKR
notes: scFv in vector pYD4 on yeast; also called HuC6D4F12 scFV
As to B3, the Kd in [9] is 6.05 nM; in experiment [10] it was 6.7 nM.

B4: HuC6D4F12 (format not stated) (antibody, V domains shown)
VH: QIQLVQSGAEVKKPGASVKISCKASGYTFTKYSMHWVRQAPGQGLEWVARINTETGEPTFADDFRGRFTVTLDTSTSTAYLEIRSLRSDDTAVYFCAIFYYGRDTWGQGTTLTVSS
VL: EIVMTQSPATLSVSPGERVTMSCKSSQSLLHSRSRKNYLAWYQQKPGQAPRLLIYWASTRESGVPARFSGSGSGTEFTLTISSVQSEDFAVYYCKQSYNLLSFGQGTVLEIKR
notes: also called HuF12; huF12
As for B4, the values for the Kd in experiment [3], in experiment [11] and in experiment [4] were 2.6 nM, 2.36 pM and 6.4 nM, respectively.

B5: H4C8 scFv displayed on yeast (scFv, V domains shown)
VH: QVQLVQSGAEVKKPGASVKVSCKVSGYTLTRQSMHWVRQAPGKGLEWMGRINTETGEPTYAQKFQGRVTMTQDTSTDTAYMELSSLRSEDTAVYFCAIFYYGRDTWGQGTTVTVSS
VL: EIVMTQSPATLSVSPGERVTLSCRSSQSLLHSRSRKNYLAWYQQKPGQAPRLLIYWASTRETGVPARFSGSGSGTEFTLTISSLQSEDFAVYYCKQSYNLLSFGQGTKVEIKR
notes: scFv in pYD4 on yeast
Regarding B5, the Kd came to 3.76 nM in experiment [9] and 3.8 nM in experiment [10].
